Experimental data as given in publication PMC10810272.

Tests used:
[1] = target: Candidatus Methanomethylophilus alvus pyrrolysyl-tRNA synthetase (MaPylRS) (Candidatus Methanomethylophilus alvus) (UniProt M9SC49); experiment: AUC; sedimentation velocity, 20°C, 30 000 rpm; 50 mM MES pH 5.2, 500 mM NaCl, 10 mM MgCl2; multiple concentrations (0.3, 0.6 and 1.2 mg/ml)
[2] = target: Candidatus Methanomethylophilus alvus pyrrolysyl-tRNA synthetase (MaPylRS) (Candidatus Methanomethylophilus alvus) (UniProt M9SC49); experiment: dynamic light scattering; Nano-S Zetasizer, five measurements; sample at 16 μM (0.5 mg/ml); dimer assigned from HullRad predictions on the crystal structure

stoichiometry N [1]: 2
stoichiometry N [2]: 2
Substance: Candidatus Methanomethylophilus alvus pyrrolysyl-tRNA synthetase (MaPylRS) (from UniProt M9SC49 1-275) (enzyme)
